Patent US20220088215A1

Biological target: Asialoglycoprotein receptor 1 (ASGR1) on the surface of HEPG2 cells (human) (UniProt P07306)
Test: cell-based or functional assay

Sequence of UniProt P07306 (P07306 whole entry): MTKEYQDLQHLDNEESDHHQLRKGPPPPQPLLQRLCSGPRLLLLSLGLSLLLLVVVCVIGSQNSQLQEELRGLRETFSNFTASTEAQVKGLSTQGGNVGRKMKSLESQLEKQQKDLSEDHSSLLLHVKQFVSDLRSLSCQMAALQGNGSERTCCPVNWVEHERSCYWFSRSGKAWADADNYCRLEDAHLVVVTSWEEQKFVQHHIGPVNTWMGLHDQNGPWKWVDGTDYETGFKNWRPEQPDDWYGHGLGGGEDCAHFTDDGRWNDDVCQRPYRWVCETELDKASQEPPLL

- improvement of mmu-miR-298-5p uptake efficiency into HEPG2 cells, against unmodified EVs: 60%
- relative quantification of mmu-miR-298-5p in Hep-G2 cells (qRT-PCR, relative ratio to control cells) (relative ratio): 2000
- relative quantification of mmu-miR-298-5p in Hep-G2 cells, against DharmaFECT transfection: 8 fold
Substance: Anti-Asialoglycoprotein Receptor 1/HL-1 antibody (abCAM, Product Number ab49355)
